From patent US20140364335A1, “METHOD FOR SCREENING FOR NRF1 REGULATOR” (Mochida Pharmaceutical Co., Ltd., priority 2012, published 2014) come the findings set out here.

In data set [1] the test system is full-length mouse Nrf1 and luciferase fusion protein (mNrf1-Luc). Description: Luciferase activity in Hepa1 cell line stably expressing mouse Nrf1-luciferase fusion protein (Nrf1 stabilization assay). Particulars: mNrf1-Luc stable Hepa1 cell lines, 10 μM MG-132, 4 hours, vs DMSO. It is filed as cell-based. As for the experimental part: (§1) Cloning of mouse Nrf1 cDNA was performed using a method known in the art (Zhang et al., Biochem. J. 399: 373-385. (2006)). An expression vector of full-length mouse Nrf1 and luciferase fusion protein (mNrf1-Luc) was prepared by ligating the sequence, which was amplified by the following primers: 5′-TAATACGACTCACTATAGGG-3′ (SEQ ID NO: 21) and 5′-CTTTATGTTTTTGGCGTCTTCCTTCCTCCGGTCCTTTG-3′ (SEQ ID NO: 22) using mouse Nrf1 cDNA sequence as a template, and the sequence, which was amplified by the following primers: 5′-CAAAGGACCGGAGGAAGGAAGACGCCAAAAACATAAAG-3′ (SEQ ID NO: 23) and 5′-GACTCTAGAATTACACGGCG-3′ (SEQ ID NO: 24) using pGL3-basic vector (Promega) as a template; and cloning the resulting sequence at a KpnI/XbaI site of pcDNA3.1/V5His B plasmid (Invitrogen). […]
(§2) Cells of each cell line were seeded at a density of 5×10^4 cells per well in a 24-well plate, cultured overnight and treated with a solvent control, DMSO or 10 μM MG-132 (Peptide Institute) for 4 hours. Thereafter, the firefly luciferase activity was measured using dual luciferase kit (Promega) and a luminometer (Berthold).

Data set [2] deals with CNC-bZip domain-deficient mouse Nrf1 and luciferase fusion protein (mNrf1ΔCNC-bZip-Luc). Kind of data set: Luciferase activity in Hepa1 cell line stably expressing CNC-bZip domain-deficient mouse Nrf1-luciferase fusion protein. In kind it is cell-based. Conditions: mNrf1ΔCNC-bZip-Luc stable Hepa1 cell lines, 10 μM MG-132, 4 hours, vs DMSO. The procedure:
as §1, §2

Another data set has as its target MafG 1-123 homodimer (UniProt O54790 O54790:1-123). Kind of data set: EMSA; MafG homodimer; MARE-like site. Conditions: tags: 6xHis; E. coli; chain copies: 2 (stated); label: 5' biotin (EMSA). As for the experimental part:
(§3) (A to C) Hepa1 cells were cotransfected with luciferase reporter constructs containing the AREs from the Lipin1 promoter (A), Lipin1 intron (B) or PGC-1β intron (C) together with or without the Nrf1 expression vector. The average values±S.D are shown, n=3. The vertical axis indicates relative luciferase units (RLU). The firefly luciferase activity in the absence of effector plasmids is set to 1. (D) The EMSA analysis was performed with biotin-labeled probes containing the AREs from the Nqo1 promoter, Lipin1 promoter, Lipin1 intron and PGC-1β intron regions. Recombinant MafG and/or Nrf1 or Nrf2 proteins were incubated with the probes, and the protein-DNA complexes and free probes were resolved by electrophoresis. (E) The sequences of the wild-type (W) and mutant (M) oligonucleotides are shown. The mutation sites of the sequences are underlined. (F) Nrf2 and MafG proteins were incubated in combination in the presence or absence of a 200-fold molar excess of unlabeled competitor DNA. The open arrowheads indicate Nrf1/MafG heterodimer complexes, the solid arrowheads indicate Nrf2-MafG heterodimer complexes and the arrows indicate MafG homodimer complexes.
(§4) EMSA was performed in accordance with a method known in the art. […]

Data set [3] deals with T1, Nrf1 CT (G341-K741)/MafG 1-123 heterodimer (Mus musculus, UniProt Q61985;O54790 Q61985:341-741,O54790:1-123). Description: EMSA; room temperature 20 min; probe boundaries in FIG. 6E may differ from the reporter insert. Particulars: tags: 6xHis on each; E. coli; label: 5' biotin (EMSA). The procedure: as §3, §4
T1 sequence (Q61985 341-741, chain 1 of 2): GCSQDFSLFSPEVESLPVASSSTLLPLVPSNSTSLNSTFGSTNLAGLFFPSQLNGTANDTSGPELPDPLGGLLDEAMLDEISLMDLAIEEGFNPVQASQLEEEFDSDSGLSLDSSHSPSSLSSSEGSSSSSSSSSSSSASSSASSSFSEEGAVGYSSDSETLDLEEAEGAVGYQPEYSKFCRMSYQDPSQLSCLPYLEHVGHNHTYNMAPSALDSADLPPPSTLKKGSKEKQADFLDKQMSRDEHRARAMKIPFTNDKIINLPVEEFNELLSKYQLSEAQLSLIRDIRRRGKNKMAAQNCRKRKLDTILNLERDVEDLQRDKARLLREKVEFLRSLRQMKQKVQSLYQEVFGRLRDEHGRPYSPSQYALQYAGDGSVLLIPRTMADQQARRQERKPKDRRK
T1 sequence (O54790 1-123, chain 2 of 2): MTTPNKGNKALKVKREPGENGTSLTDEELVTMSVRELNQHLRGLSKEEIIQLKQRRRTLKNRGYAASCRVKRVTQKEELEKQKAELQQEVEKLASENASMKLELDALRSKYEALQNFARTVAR
Data set [4] concerns the target T1, Nrf1 CT (G341-K741)/MafG 1-123 …. Kind of data set: EMSA; slightly weaker than for Nqo1 ARE; room temperature 20 min; probe boundaries in FIG. 6E may differ from the reporter insert. Particulars: tags: 6xHis on each; E. coli; label: 5' biotin (EMSA). The procedure: as §3, §4

Where a SMILES comes first, the peptide text is derived from it. The star is where a group is joined. Cbz = O=C(OCc1ccccc1)*

Sequence of MafG 1-123 homodimer (O54790 1-123, one chain of several): as the sequence (O54790 1-123, chain 2 of 2) above

With `CC(C)C[C@@H](C=O)NC(=O)[C@H](CC(C)C)NC(=O)[C@H](CC(C)C)NC(=O)OCc1ccccc1` [MG-132] (Cbz-Leu-Leu-Leu-aldehyde), the “luciferase activity compared to solvent” value in data set [1] and in data set [2] was “drastic increase of luciferase activity” throughout.

B1: Lipin1 intron ARE (dsDNA)
DNA 1: CACACCCTGCCCAGAGGCACACTTGCTGAGTCAGCACCCCGG
DNA 2: CCGGGGTGCTGACTCAGCAAGTGTGCCTCTGGGCAGGGTGTG
With B1, the binding result (with MafG 1-123 homodimer; in data set [3]) was “binds” throughout.

B2: Lipin1 promoter ARE (dsDNA)
DNA 1: ACGCTCCTGCCGCTGAGCTGTGACTCAGCCAGAGAACTGAG
DNA 2: CTCAGTTCTCTGGCTGAGTCACAGCTCAGCGGCAGGAGCGT
For B2, the binding result in data set [4] is given as “binds”.

B3: PGC-1beta intron ARE (dsDNA)
DNA 1: TTGATAGTGAGGGGAACATGCTGACTCAGCAGCTCCGAATAA
DNA 2: TTATTCGGAGCTGCTGAGTCAGCATGTTCCCCTCACTATCAA
Turning to B3, the binding result (with MafG 1-123 homodimer; in data set [3]) was “binds” in each case.
